The values below come from paper PMC7985572, “Backbone chemical shift spectral assignments of SARS coronavirus-2 non-structural protein nsp9” (Biomolecular Nmr Assignments, 2021).

The data set concerns the molecule itself. In words: SEC. In general terms: Size exclusion chromatography separates by hydrodynamic size, large species first.

B1: SARS-CoV-2 non-structural protein 9 (nsp9) (natural protein)
chain: GAMGNNELSPVALRQMSCAAGTTQTACTDDNALAYYNTTKGGRFVLALLSDLQDLKWARFPKSDGTGTIYTELEPPCRFVTDTPKGPKVKYLYFIKGLNNLNRGMVLGSLAATVRLQ
notes: also called non-structural protein nsp9; sample A; not shown: His6, N-terminal, cleaved; GST, N-terminal, cleaved
For orientation: stoichiometry N means a count of units in the complex or per binding partner. As for B1, the “stoichiometry N” value was 2.
